Measured values reported in article PMC9174178 (Cell Reports, 2022).

B1: psNb 2-45 (VHH)
VHH: QVQLVESGGGLVQAGGSLRLSCTASGYDFSILAIAWYRQAPGKERELVAAISRVGSTDYADSVKGRFTISRDNTKNTVSLQMDSLKPEDTAVYYCNAGIPMTTVLSGLGFWGQGTQVTVSS
B2: psNb 2-34 (VHH)
VHH: HVQLVESGGGLVQAGGSLRLSCAASGRTFSRYAAGWFRQAPGKEREFVAVIEWDGDSAYYADPVKGRFTISRDNAKNTVYLQMNRLKPEDTAVYICAVGGNHYSRSKYYNLDEYDDWGQGTQVTVSS
B3: psNb 2-65 (VHH)
VHH: HVQLVESGGGLVQAGGSLRLSCAASGTISTLNAMGWYRQAPGKQRELLASISNLGTTYHADSVAGRFTISRGSAKNTVNLQMNSLKPDDTAVYYCNTRVLEGGTQIRDYWGQGTQVTVSS
B4: psNb 2-57 (VHH)
VHH: QVQLVESGGGLVQAGGSLRLSCAVSGRTISTFGMGWFRQAPGKEREFVATITRDEDMLLYADSVKGRFTISRDTAKNMVFLQMNSLKIEDTALYYCAVRRDSSWGYSRQSTEYDYWGQGTQVTVSS
B5: psNb 1-23 (VHH)
VHH: QVQLVESGGGLVQAGGSLRLSCAASGRTDSISDMGWFRQAPGKEREFVAVVGWSGGGTDYAHSVKGRFTISRDNAKNTVYLQMNSLKPEDTAVYYCAVGSLRVGSFSVEYWGQGTQVTVSS
B6: psNb 1-22 (VHH)
VHH: HVQLVESGGGLVQPGGSLRLSCAASGRSFNSYLMGWFRQAPGKEREFVAWISGSPHDIIRYRDSVKDRFTISRDNAKNTVYLQMNSLKPVDTAVYYCAVGSLRVGSFSPDYWGQGTQVTVSS
B7: psNb 2-38 (VHH)
VHH: QVQLVESGGGLVQAGGSLRLSCAAAARFSTSAMGWFRQAPGKEREFVAAISWSNTNTHYADTVKGRFTISADTAKETVDLQMNSLKPEDTAVYYCVQGGWGIRQPIIVDYWGKGTQVTVSS
B8: psNb 2-67 (VHH)
VHH: EVQLVESGGGLVQTGGSLRLSCALSGYTFSIFPTAWFRQAPGKEREFVAGIRWNGSTRDYTEYADFVKGRFTISRDNAKNMVYLQMISLKPEDTALYYCAASDGVIDGTNANAYRYWGQGTQVTVSS
B9: psNb 1-8 (VHH)
VHH: QVQLVESGGGLVQTGGSLRLSCAASGRTFSNYVMGWFRQAPGKEREFVSSIEWNSENTFYANSVKGRFTISRDNAKNTVYLQMNSLKAEDTAVYYCAADRGSSYYYTRASEYTYWGQGTQVTVSS

Molecular target: SARS-CoV-2 spike HexaPro (S) (SARS-CoV-2 (Wuhan-Hu-1), UniProt P0DTC2, stabilised)
Test: cryo-EM structure

| Binder | binding result |
| --- | --- |
| B1 | binds |
| B2 | binds |
| B3 | binds |
| B4 | binds |
| B5 | binds |
| B6 | binds |
| B7 | binds |
| B8 | binds |
| B9 | binds |
